According to publication PMC5595146 (Metallomics : integrated biometal science, 2017):

B1: S. pombe Grx4 (WT) (natural protein, UniProt O74790 1-244, looked up)
chain: MSVEITFVEQFQEILQNGKEQIILLNFYAPWAAPCKQMNQVFDQFAKDTKNAVFLKIEAEKFSDIAESFDVNAVPLFVLIHGAKVLARISGANPQKLKAAIDEYIQPLISQISSTNASVETQVNSVQTTNTTSNTSKAPNGLDSELNERLSTLTNAHNVMLFLKGTPSEPACGFSRKLVGLLREQNVQYGFFNILADDSVRQGLKVFSDWPTFPQLYIKGEFVGGLDIVSEMIENGELQEMLPN

Columns and labels:
S. pombe Grx4 (WT) = target: B1; assay: CD-monitored titration
SEC = target: the molecule itself; assay: SEC
[1] = target: T1, S. pombe Php4 (WT), 6xHis-tagged (S. pombe, UniProt O14318 1-295); assay: SPR
T1 sequence (looked up): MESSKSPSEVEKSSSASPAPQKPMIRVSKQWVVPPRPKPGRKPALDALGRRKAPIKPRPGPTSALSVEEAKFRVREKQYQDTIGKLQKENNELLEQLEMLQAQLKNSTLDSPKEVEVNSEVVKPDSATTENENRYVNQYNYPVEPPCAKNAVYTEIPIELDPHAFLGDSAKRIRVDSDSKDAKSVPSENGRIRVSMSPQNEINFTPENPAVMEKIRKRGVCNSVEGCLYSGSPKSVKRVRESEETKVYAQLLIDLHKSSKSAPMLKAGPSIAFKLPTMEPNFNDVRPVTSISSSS

Binder | binding result (S. pombe Grx4 (WT)) | binding result (SEC) | Kd [1] | koff [1] | kon [1]
S. cerevisiae Fra2^Δ1–35 (domain or fragment, UniProt P53082 36-120, looked up) MPVTEQGLRERIESAIPQVYHIIVTDLSYGCGQSFDIVVVSDFFQGKSKLMRSRAVNKAVKEELQEIHAFSCKCYTEEEWSKIVV | binds | – | – | – | –
B1 | – | binds | 34.1 µM | 0.00219 s⁻¹ | 64.3 M⁻¹ s⁻¹
S. pombe Grx4 (C172A) (natural protein, UniProt O74790 1-244, looked up) MSVEITFVEQFQEILQNGKEQIILLNFYAPWAAPCKQMNQVFDQFAKDTKNAVFLKIEAEKFSDIAESFDVNAVPLFVLIHGAKVLARISGANPQKLKAAIDEYIQPLISQISSTNASVETQVNSVQTTNTTSNTSKAPNGLDSELNERLSTLTNAHNVMLFLKGTPSEPAAGFSRKLVGLLREQNVQYGFFNILADDSVRQGLKVFSDWPTFPQLYIKGEFVGGLDIVSEMIENGELQEMLPN | – | – | 897 µM | 0.00916 s⁻¹ | 10.2 M⁻¹ s⁻¹
